Laboratory results taken from US20150182581A1.

How the values were obtained:
Experiment in all cases: cell-based or functional assay
[1] = molecular target: HIV-1 Nef (full length Nef gene, accession no. GQ184335) cloned in VP16pCDNA+pACT mammalian two-hybrid vector (herpes simplex virus type 1; HIV-1)
[2] = molecular target: ASK1(h) cloned in pEYFP-N1 (human) (UniProt Q99683)
[3] = molecular target: ASK1(g) cloned in pEYFP-N1 (human) (UniProt Q99683)
[4] = molecular target: ASK1i cloned in pEYFP-N1 (human) (UniProt Q99683)
Chain of ASK1i cloned in pEYFP-N1 (human) (Q99683 1-904): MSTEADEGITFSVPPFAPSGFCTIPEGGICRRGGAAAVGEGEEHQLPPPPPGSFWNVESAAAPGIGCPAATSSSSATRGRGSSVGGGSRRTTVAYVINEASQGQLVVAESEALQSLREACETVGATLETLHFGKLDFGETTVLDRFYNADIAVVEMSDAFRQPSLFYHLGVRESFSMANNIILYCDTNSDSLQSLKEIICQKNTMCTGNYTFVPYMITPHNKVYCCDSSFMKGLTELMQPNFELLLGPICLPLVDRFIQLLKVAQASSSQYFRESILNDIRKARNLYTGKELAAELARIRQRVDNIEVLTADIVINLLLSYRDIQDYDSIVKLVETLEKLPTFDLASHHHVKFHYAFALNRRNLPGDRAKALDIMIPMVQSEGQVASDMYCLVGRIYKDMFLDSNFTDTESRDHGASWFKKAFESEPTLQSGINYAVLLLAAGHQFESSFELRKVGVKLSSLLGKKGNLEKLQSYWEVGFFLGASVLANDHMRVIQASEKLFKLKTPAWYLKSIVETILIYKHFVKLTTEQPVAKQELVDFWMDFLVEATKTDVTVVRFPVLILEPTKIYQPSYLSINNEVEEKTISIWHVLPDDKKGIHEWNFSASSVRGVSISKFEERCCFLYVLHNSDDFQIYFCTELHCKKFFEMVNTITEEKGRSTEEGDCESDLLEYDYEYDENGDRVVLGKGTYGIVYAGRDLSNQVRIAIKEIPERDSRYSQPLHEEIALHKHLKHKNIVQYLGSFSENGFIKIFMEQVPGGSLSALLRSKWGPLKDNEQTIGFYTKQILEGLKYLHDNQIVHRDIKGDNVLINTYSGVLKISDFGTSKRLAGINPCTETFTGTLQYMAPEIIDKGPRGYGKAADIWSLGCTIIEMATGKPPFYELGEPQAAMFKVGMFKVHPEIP

Chain of ASK1(g) cloned in pEYFP-N1 (human) (Q99683 1-1050): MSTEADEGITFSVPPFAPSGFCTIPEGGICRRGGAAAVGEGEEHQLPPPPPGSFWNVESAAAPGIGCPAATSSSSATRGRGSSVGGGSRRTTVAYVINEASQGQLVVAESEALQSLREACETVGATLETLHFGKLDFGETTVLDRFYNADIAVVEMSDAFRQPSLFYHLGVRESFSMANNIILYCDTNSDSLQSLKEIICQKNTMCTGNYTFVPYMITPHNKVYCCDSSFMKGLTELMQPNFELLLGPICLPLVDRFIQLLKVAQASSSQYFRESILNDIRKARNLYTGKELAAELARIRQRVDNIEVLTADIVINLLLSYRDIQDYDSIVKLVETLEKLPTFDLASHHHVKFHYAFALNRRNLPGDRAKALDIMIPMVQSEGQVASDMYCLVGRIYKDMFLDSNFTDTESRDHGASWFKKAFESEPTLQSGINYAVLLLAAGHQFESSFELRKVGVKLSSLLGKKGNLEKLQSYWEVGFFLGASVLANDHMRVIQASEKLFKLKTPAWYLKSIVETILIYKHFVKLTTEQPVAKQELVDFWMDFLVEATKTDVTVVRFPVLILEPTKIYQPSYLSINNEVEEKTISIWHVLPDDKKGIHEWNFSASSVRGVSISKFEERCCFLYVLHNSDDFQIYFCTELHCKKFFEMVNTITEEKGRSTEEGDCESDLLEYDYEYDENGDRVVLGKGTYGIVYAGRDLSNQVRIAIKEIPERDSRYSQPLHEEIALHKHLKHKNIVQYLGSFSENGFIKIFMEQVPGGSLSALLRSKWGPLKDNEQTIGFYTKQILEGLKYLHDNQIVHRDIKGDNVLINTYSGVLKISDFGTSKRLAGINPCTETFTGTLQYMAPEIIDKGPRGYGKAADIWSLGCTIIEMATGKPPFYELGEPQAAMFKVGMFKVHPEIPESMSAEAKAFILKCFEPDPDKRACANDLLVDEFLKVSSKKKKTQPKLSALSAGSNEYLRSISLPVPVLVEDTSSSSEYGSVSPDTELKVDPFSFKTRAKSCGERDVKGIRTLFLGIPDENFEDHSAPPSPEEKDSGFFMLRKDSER
Chain of ASK1(h) cloned in pEYFP-N1 (human) (Q99683 320-1050): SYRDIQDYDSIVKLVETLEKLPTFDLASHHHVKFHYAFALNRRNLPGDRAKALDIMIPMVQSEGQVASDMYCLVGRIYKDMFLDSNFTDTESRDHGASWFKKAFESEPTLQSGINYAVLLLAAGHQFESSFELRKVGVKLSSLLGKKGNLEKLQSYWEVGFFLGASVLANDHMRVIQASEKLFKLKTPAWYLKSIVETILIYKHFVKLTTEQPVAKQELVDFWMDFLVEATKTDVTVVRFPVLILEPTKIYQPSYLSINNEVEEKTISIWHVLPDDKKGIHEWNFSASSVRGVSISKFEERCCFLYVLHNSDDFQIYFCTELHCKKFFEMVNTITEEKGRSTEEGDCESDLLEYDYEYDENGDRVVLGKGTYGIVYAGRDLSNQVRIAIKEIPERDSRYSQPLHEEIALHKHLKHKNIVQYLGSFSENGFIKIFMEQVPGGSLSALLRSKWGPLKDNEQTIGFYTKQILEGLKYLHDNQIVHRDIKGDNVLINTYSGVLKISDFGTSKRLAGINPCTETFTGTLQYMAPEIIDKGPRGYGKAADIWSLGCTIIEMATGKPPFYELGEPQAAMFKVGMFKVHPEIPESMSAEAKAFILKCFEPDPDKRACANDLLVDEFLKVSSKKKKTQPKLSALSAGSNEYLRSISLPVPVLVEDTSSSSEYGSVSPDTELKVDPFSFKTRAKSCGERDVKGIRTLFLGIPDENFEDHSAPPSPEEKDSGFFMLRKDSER

**Q.** For “ASK1a (1-1035) cloned in pBIND (from UniProt P04386 1-147; Q99683 1-345)”, which luciferase activity compared to negative control pACT-pBIND [1] is on record?
**A.** The luciferase activity compared to negative control pACT-pBIND was 2.28 fold.

**Q.** Which luciferase activity compared to negative control [1] does the source give for “ASK1i (contain ASK1a and downstream sequence) cloned in pBIND (from UniProt P04386 1-147; Q99683 1-904)” here?
**A.** The luciferase activity compared to negative control was 2.72 fold.

**Q.** Which luciferase activity compared to negative control [1] does the source give for “ASK1j (contain in between ASK1a and ASK1d fragment) cloned in pBIND (from UniProt P04386 1-147; Q99683 320-904)” here?
**A.** Its luciferase activity compared to negative control is 0.5 fold.

**Q.** What does the source list for “HIV-1 Nef (accession no. GQ184335) cloned in pEYFP-N1”?
**A.** annexin V stained cells after co-transfection [2]: 38%; inhibition of apoptosis [2]: 10%; % of Annexin V cells means apoptotic cells [3]: 22.1%; annexin V stained cells after co-transfection [3]: 20%; inhibition of apoptosis [3]: 52%; inhibition of apoptosis (annexin V and PI staining) [3]: 50%; phosphorylation of JNK kinase (western blot, densitometry) [3]: 2 fold; annexin V stained cells after co-transfection [4]: 26%; inhibition of apoptosis [4]: 42%

**Q.** For “ASK1h (Contain ASK1d and upstream sequence) cloned in pBIND (from UniProt P04386 1-147; Q99683 320-1050)”, which luciferase activity compared to negative control [1] is on record?
**A.** The luciferase activity compared to negative control was 8.41 fold.

**Q.** For “ASK1d (2581-3152) cloned in pBIND (from UniProt P04386 1-147; Q99683 861-1050)”, which luciferase activity compared to negative control pACT-pBIND [1] is on record?
**A.** Its luciferase activity compared to negative control pACT-pBIND is 2.89 fold.

**Q.** With “ASK1g (contain both ASK1a, ASK1d and in between sequence) cloned in pBIND (from UniProt P04386 1-147; Q99683 1-1050)” as the substance, how does the luciferase activity compared to negative control pACT-pBIND [1] read?
**A.** Its luciferase activity compared to negative control pACT-pBIND is 154 fold.

**Q.** For “ASK1b (959-2010) cloned in pBIND (from UniProt P04386 1-147; Q99683 320-670)”, which luciferase activity compared to negative control pACT-pBIND [1] is on record?
**A.** Its luciferase activity compared to negative control pACT-pBIND is 1.1 fold.
